Data set [1] deals with Hfq (Pseudomonas aeruginosa PAO1) (UniProt Q9HUM0). Briefly: filter binding. The settings on record: EMSA: 10 mM Tris-HCl pH 8.0, 10 mM MgCl2, 60 mM NaCl, 10 mM NaH2PO4, 10 mM DTT, 25 ng tRNA in 10 ul, 37 C 30 min; 4% PAGE in Tris-borate; filter binding buffer ….
Data set [2] concerns the target HfqK56A K56A (Pseudomonas aeruginosa PAO1) (UniProt Q9HUM0). The experiment in a line: EMSA. Conditions: EMSA: 10 mM Tris-HCl pH 8.0, 10 mM MgCl2, 60 mM NaCl, 10 mM NaH2PO4, 10 mM DTT, 25 ng tRNA in 10 ul, 37 C 30 min; 4% PAGE in Tris-borate; filter binding buffer ….
Data set [3] addresses Hfq (Pseudomonas aeruginosa PAO1) (UniProt Q9HUM0). The experiment in a line: EMSA. Conditions: EMSA: 10 mM Tris-HCl pH 8.0, 10 mM MgCl2, 60 mM NaCl, 10 mM NaH2PO4, 10 mM DTT, 25 ng tRNA in 10 ul, 37 C 30 min; 4% PAGE in Tris-borate; filter binding buffer ….
For data set [4], the target named is HfqY25D Y25D (Pseudomonas aeruginosa PAO1) (UniProt Q9HUM0). Briefly: EMSA. The settings on record: EMSA: 10 mM Tris-HCl pH 8.0, 10 mM MgCl2, 60 mM NaCl, 10 mM NaH2PO4, 10 mM DTT, 25 ng tRNA in 10 ul, 37 C 30 min; 4% PAGE in Tris-borate; filter binding buffer ….
Data set [5] deals with Hfq (Pseudomonas aeruginosa PAO1). Briefly: filter binding. Conditions: Hfq-hexamer concentration; duplicate; EMSA: 10 mM Tris-HCl pH 8.0, 10 mM MgCl2, 60 mM NaCl, 10 mM NaH2PO4, 10 mM DTT, 25 ng tRNA in 10 ul, 37 C 30 min; 4% PAGE in Tris-borate; filter binding buffer ….
Data set [6] concerns the target Hfq (Pseudomonas aeruginosa PAO1) (UniProt Q9HUM0). Briefly: competition. The settings on record: EMSA: 10 mM Tris-HCl pH 8.0, 10 mM MgCl2, 60 mM NaCl, 10 mM NaH2PO4, 10 mM DTT, 25 ng tRNA in 10 ul, 37 C 30 min; 4% PAGE in Tris-borate; filter binding buffer ….

pKd: −log10 of the molar value.

In the case of “GAUCAGGUCGUGCGCAUCAGCGUCGAUGUCGCGGGACCGAACCUAACGCAUACGUACAGAGCAAAUGGGCUCUCCCGGGGUUACCCGGGAGGGCCUUUUUUCGUCCCGAAAAAAUAACAACAAGAGGUGAUAUCCAUGCGUCACGGCGAUAUUUCCUGCAGAAAAAA [amiE -134-+20 RNA]”, the pKd in data set [1] was 7.17. Further, the binding entry in data set [2] is reported as “binds”; in data set [3], “binds”; in data set [4], “no binding”.

Turning to amiE -134-+20 RNA, the negative logarithm of the Kd (pKd) in data set [5] is 7.17.

For “GGCACAACAACAAUAACAAGCAACGACGAAGACAAUAAAAACAACACGUAACGACUCCAGCACAACAAAAACAAAAUCGCGGAGGCGCAGCUAACUGAUUCUUUUGGAGAGGAGUUGCUGUCGGGACCCGUCCCGCAGCCAGUCGGAAGAAG [CrcZ151 RNA]”, the binding result in data set [6] was “binds”; in data set [2] it was “binds”; in data set [3], “binds”; in data set [4] it was “binds more weakly”.

For “GCGUACAGGGAACACGCAACCCCGAAGGAUCGGGGAAGGGACGUCGCCAGGGAGGCGAUUCAUCAGGAUGAUGACGAGGGACUGAAGAGUGGGCGGGGUAAUACCCCGCCCCUUUUUUUUGCCUGCCGUUUUACUCGUCGCCCUGCAGUUU [RsmZ RNA]”, the binding result in data set [6] is reported as “no binding”.

Source of the values: publication PMC4063720.
